This passage reports Kd and stoichiometry N results from publication doi:10.1101/2020.07.21.215244 (bioRxiv, 2020).

What is called Kd is the concentration at which binding is half-saturated. Low readings indicate tighter binding, high ones weaker binding. As a reminder, the stoichiometry N is the number of molecules, sites or subunits per partner or assembly.

Experiment [1] has as its target T1, AscA (YecA), unfused full-length (E. coli, UniProt P0AD05 1-221).
T1 sequence (looked up): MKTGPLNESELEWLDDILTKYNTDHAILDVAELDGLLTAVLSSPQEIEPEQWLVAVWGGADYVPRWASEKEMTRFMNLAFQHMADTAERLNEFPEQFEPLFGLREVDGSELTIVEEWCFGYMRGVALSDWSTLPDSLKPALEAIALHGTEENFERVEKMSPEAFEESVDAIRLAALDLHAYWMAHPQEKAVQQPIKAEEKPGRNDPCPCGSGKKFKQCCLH
The experiment in a line: MST.

The target of experiment [2] is vacant (non-translating) 70S ribosomes. In words: co-sedimentation.

B1: SecB, fluorescently labelled (NT-647) (natural protein, E. coli, UniProt P0AG86 1-155, looked up)
chain: MSEQNNTEMTFQIQRIYTKDISFEAPNAPHVFQKDWQPEVKLDLDTASSQLADDVYEVVLRVTVTASLGEETAFLCEVQQGGIFSIAGIEGTQMAHCLGAYCPNILFPYARECITSMVSRGTFPQLNLAPVNFDALFMNYLQQQAGEGTEEHQDA
modifications: randomly labelled with NT-647 (NT-647-NHS labelling kit)
B1: the Kd in experiment [1] is around 150 nM.

B2: AscA (YecA), unfused full-length (natural protein)
chain: T1 sequence (looked up)
The molecule B2 had a stoichiometry N in experiment [2] of 1.
